# Test results published in patent US20180282403A1, “AGENTS FOR REDUCING THE ACTIVITY OF GDF15” (GENAGON THERAPEUTICS AB, priority 2015, published 2018).
# Residues, ends and D or L forms follow the SMILES beside them. No end group written: not given here. *: point of attachment. Cbz = O=C(OCc1ccccc1)*
# T1: QRFPR (Homo sapiens, UniProt Q96P65)
# T1 construct: endogenous in cells
# T1 sequence (Q96P65 1-431): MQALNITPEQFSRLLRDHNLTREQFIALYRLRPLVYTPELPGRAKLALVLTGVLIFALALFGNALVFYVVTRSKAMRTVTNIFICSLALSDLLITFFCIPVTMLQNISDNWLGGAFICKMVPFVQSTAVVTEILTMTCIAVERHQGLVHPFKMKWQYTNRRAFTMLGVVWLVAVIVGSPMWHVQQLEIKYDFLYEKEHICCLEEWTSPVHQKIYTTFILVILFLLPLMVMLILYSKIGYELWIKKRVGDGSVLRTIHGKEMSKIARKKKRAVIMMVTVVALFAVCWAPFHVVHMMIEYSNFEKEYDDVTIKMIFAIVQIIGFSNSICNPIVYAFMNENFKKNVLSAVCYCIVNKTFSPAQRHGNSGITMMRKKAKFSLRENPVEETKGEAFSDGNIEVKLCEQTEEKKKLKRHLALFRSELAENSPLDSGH
# T2: GDF15 (Homo sapiens, UniProt Q99988)
# T2 construct: purchased Abcam
# T2 sequence (Q99988 197-308 limits assumed): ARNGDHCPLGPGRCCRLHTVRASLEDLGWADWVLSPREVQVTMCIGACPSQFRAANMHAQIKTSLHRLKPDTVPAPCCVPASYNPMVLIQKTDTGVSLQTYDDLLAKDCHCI
# T3: Cleft Lip and Palate Transmembrane protein 1 (CLPTM1) (human, UniProt O96005 2-669)
# T3 construct: Endogenous receptor of NK-92 cells, CD14+ cells and human tissues
# T3 sequence: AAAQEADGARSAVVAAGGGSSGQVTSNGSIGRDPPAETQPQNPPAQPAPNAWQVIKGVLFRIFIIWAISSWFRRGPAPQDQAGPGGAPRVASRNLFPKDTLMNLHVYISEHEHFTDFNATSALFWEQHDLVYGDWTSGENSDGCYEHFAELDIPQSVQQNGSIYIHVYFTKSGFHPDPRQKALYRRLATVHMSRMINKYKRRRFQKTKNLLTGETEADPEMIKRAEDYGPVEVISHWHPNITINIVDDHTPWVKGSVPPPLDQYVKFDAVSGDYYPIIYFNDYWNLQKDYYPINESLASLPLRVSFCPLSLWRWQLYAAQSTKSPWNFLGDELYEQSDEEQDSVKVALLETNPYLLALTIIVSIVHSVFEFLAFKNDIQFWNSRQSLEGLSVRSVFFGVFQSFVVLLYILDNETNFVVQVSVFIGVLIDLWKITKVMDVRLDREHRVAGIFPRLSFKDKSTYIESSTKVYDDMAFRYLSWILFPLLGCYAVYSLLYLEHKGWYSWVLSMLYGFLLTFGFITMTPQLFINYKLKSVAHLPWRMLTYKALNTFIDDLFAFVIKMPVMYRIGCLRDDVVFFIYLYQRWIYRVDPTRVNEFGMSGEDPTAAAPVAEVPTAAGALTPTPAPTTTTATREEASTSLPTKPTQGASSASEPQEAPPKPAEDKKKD
# T4: Growth and differentiation factor 15 (GDF15) (UniProt Q99988 197-308, limits assumed)
# T4 construct: Purchased GDF15 added to cells, pull-downs, peptide arrays and ELISA; also called MIC1
# T4 sequence (looked up): T2 sequence (Q99988 197-308 limits assumed)
# B1: TGFBRI (ALK5) (receptor, UniProt P36897 34-503, looked up)
# chain: LQCFCHLCTKDNFTCVTDGLCFVSVTETTDKVIHNSMCIAEIDLIPRDRPFVCAPSSKTGSVTTTYCCNQDHCNKIELPTTVKSSPGLGPVELAAVIAGPVCFVCISLMLMVYICHNRTVIHHRVPNEEDPSLDRPFISEGTTLKDLIYDMTTSGSGSGLPLLVQRTIARTIVLQESIGKGRFGEVWRGKWRGEEVAVKIFSSREERSWFREAEIYQTVMLRHENILGFIAADNKDNGTWTQLWLVSDYHEHGSLFDYLNRYTVTVEGMIKLALSTASGLAHLHMEIVGTQGKPAIAHRDLKSKNILVKKNGTCCIADLGLAVRHDSATDTIDIAPNHRVGTKRYMAPEVLDDSINMKHFESFKRADIYAMGLVFWEIARRCSIGGIHEDYQLPYYDLVPSDPSVEEMRKVVCEQKLRPNIPNRWQSCEALRVMAKIMRECWYANGAARLTALRIKKTLSQLSQQEGIKM
# notes: whole, on cells; also called TGFBR1
# B2: TGFBRII (receptor, UniProt P37173 23-567, looked up)
# chain: TIPPHVQKSVNNDMIVTDNNGAVKFPQLCKFCDVRFSTCDNQKSCMSNCSITSICEKPQEVCVAVWRKNDENITLETVCHDPKLPYHDFILEDAASPKCIMKEKKKPGETFFMCSCSSDECNDNIIFSEEYNTSNPDLLLVIFQVTGISLLPPLGVAISVIIIFYCYRVNRQQKLSSTWETGKTRKLMEFSEHCAIILEDDRSDISSTCANNINHNTELLPIELDTLVGKGRFAEVYKAKLKQNTSEQFETVAVKIFPYEEYASWKTEKDIFSDINLKHENILQFLTAEERKTELGKQYWLITAFHAKGNLQEYLTRHVISWEDLRKLGSSLARGIAHLHSDHTPCGRPKMPIVHRDLKSSNILVKNDLTCCLCDFGLSLRLDPTLSVDDLANSGQVGTARYMAPEVLESRMNLENVESFKQTDVYSMALVLWEMTSRCNAVGEVKDYEPPFGSKVREHPCVESMKDNVLRDRGRPEIPSFWLNHQGIQMVCETLTECWDHDPEARLTAQCVAERFSELEHLDRLSGRSCSEEKIPEDGSLNTTK
# notes: whole, on cells
# B3: AP5 (QRFPR peptide): Fc mouse IgG1-GGGGSGGGGSGGGGSQRLEIKYDFLYEKEH (Fc fusion, not shown: a dimerising Fc or GST)
# chain: {Fc mouse IgG1}-GGGGSGGGGSGGGGSQRLEIKYDFLYEKEH
# modifications: also: Fc fusion dimer
# notes: if the entry holds the Fc too, the first part is redundant; also called AP5 construct; Fc fusion protein comprising a QRFPR polypeptide
# B4: AP2 (CLPTM1 peptide): Fc mouse IgG1-GGGGSGGGGSGGGGSYISEHEHFTDFNATSALFWEQHDLVYGDWTS (Fc fusion, not shown: a dimerising Fc or GST)
# chain: {Fc mouse IgG1}-GGGGSGGGGSGGGGSYISEHEHFTDFNATSALFWEQHDLVYGDWTS
# modifications: also: Fc fusion dimer
# notes: also called AP2 construct; Fc fusion protein comprising a CLPTM1 polypeptide
# What was measured:
# QRFPR = molecular target: T1, QRFPR; assay: QRFPR levels after prolonged GDF15 stimulation with or without proteasome inhibition; type: cell-based; settings: MG132 10 μM + GDF15 overnight vs equal GDF15 without MG132; FIG. 6
# Experimental: This effect is not seen in cells which are treated with MG132 (FIG. 6D).
# GDF15 [1] = molecular target: T2, GDF15; assay: Pull down of GDF15 by Fc fusion proteins with stringent washes; type: binding; settings: 20 μg Fc fusion protein, 0.5 μg GDF15, protein-G bead, FIG. 27
# Experimental: (§1) 20 μg Fc fusion protein constructs were incubated with 0.5 μg GDF15 and protein-G bead with mixing for 6 hrs in +4 C in PBST+1% BSAs. Wash 6 times: 3 times PBST, change tubes, 2 washes PBST+220 mM NaCl. Last wash PBS. The beads were collected using a table-top centrifuge set at 500 g for 5 minutes between washes. Detection The material was loaded on a 4-12% gradient gel, run at 100 volt, transferred to PVDF membrane using a Turbo Tank blot system, blocked by PBS with 3% BSA 1 hr RT, and incubated with RD systems a monoclonal anti-GDF15 antibody overnight. A secondary antibody: mouse HRP 1:2000 was used for detection. The size of band was estimated by comparing with a seeblue2 protein ladder marker run in an adjacent lane.
# The fragments from the receptors were selected based on previous results including array data indicating direct interaction with GDF15. In the array, the interaction is between a peptide monomer and the ligand.
# CD14+ cells = assay: Cytokine secretion by LPS-stimulated CD14+ cells (Proseek assay); type: cell-based
# Experimental: CD14+ cells where isolated and cultured in the presence or absence of GDF15 in a LPS stimulated culture.
# Buffy coat cell suspension or heparinized blood samples were diluted with sterile, room temperature PBS. Peripheral blood samples are diluted 1:1, whereas buffy coats are diluted to a final volume of 120 ml (in a standard buffy coat this will result in slightly greater dilution than 1:1). The diluted cell suspension was layered onto Ficoll Paque PLUS. For one buffy 4×15 ml aliquots are used (30 ml of diluted cell suspension/tube). Cells were centrifuged at 400×g for 30 min at room temperature and transferred to a new 50 ml tube. Cells were washed once and resuspended in 20 ml PBS.
# Mononuclear cell suspension was pelleted by centrifugation. Cells were resuspended in Stemcell buffer at a concentration of 10^8 cells/ml and transferred to a round bottom 14 ml tube. EasySep Positive Selection cocktail at was added at 100 μl/ml cells, mixed by gentle pipetting, and incubated at room temperature for 15 min. 50 μl EasySep Magnetic Nanoparticles per 1 ml cells were added and mixed, and incubated at room temperature for 10 min. Stemcell recommended medium was added to bring the cell suspension to a total volume of 5 ml and mixed by gently pipetting. The tube (without cap) was placed into the magnet and set aside for 5 min. After 5 minutes the supernatant was discarded. CD14+ labelled cells will remain inside the tube. The tube was removed from the magnet and add 5 ml Stemcell recommended medium was added and mixed by gently pipetting. The tube (without cap) was placed into the magnet and set aside for 5 min. The was step was repeated before the cells were resuspended in 5 ml complete RPMI medium. 50 μl of the CD14+ cell suspension was removed and counted to determine total cell number after dilution in Trypan blue solution and mounting on Fast Read 102 Counting Slides.
# Adjust CD14+ cell suspension volume to a concentration of 0.833×10^6 cells/ml in complete RPMI medium. 300 μl of cell suspension is added to wells in a 48 well plate well (0.25×10^6 cells per well), and allowed to adhere for 90 min in an incubator at 37° C. Non-adherent cells were removed by removal of the supernatant after gently pipetting the medium. Cells were washed once with 300 μl pre-warmed complete RPMI medium and the medium aspirated off. 300 μl pre-warmed complete RPMI medium was added to each well and the cells were incubate overnight (20-24 h) in a cell incubator at 37° C.
# A 17× stock solution of the desired GDF15 modulatory substances was diluted in complete RPMI. (20 μl of substance/well assayed). 20 μl of modulatory substance or medium/carrier (negative control) was added to each well and mixed by gentle pipetting. Cells were incubated for 30 min in a cell incubator at 37° C. A 17×GDF15 solution was prepared by diluting a 100 μg/ml stock solution to a concentration of 8.5 μg/ml (final concentration in culture 0.5 μg/ml) in complete RPMI. 20 μl of diluted GDF15 was added per well, and incubated overnight (18-20 h) in a cell incubator at 37° C.
# A 18×LPS solution was prepared by diluting the LPS stock solution to a concentration of 18 ng/ml (final concentration in culture 1 ng/ml) in complete RPMI. 20 μl of LPS or medium (negative control) was added to each well and mixed by gentle pipetting. […]
# Secreted proteins from cell cultures where quantified using multiplexed proximity extension assay, Proseek (Assarsson E et al PlosOne 2014) by Olink Proteomics AB (Uppsala Sweden). […]
# GDF15 [2] = molecular target: T2, GDF15; assay: Biotin pull-down of GDF15 using biotinylated peptides derived from QRFPR and CLPTM1; type: binding; settings: N-terminal biotin peptides on Streptavidin-agarose beads, extensive washes; FIG. 8A
# Experimental: In order to further characterise the peptides which interact with GDF15, a series of GST-fusion proteins and biotinylated peptides was prepared. GDF15 was obtained from Biovision and/or Abcam.
# A series of peptides from the QRFPR and the CLPTM1 proteins was designed. In order to use the peptides both for immunoprecipitation experiments and cell culture based assays added an N-terminal biotin was added to each peptide, and the counter-ion changed to chloride.
# A series of biotinylated peptides was used (FIG. 8A). […] Combinations of the peptides were also used. Peptides were mixed in a 1:1 ratio, with same total amounts as in lanes 1-5, resulting in 50% of each peptide as compared to lanes 1-5. Lane 6: EC domain 3 & EC domain 4 from QRFPR; Lane 7: EC domain 4 from QRFPR & peptide from EC domain of CLPTM1; Lane 8: EC domain 3 from QRFPR & peptide from EC domain of CLPTM1; Lane 9: Mw markers; Lane 10: GDF15 (positive control).
# [3] = molecular target: T3, Cleft Lip and Palate Transmembrane …; assay: in situ PLA on NK-92 cells
# [4] = molecular target: T4, Growth and differentiation factor 15 …; assay: Fc-fusion pull-down on protein-G beads, Western blot
# Experimental: as §1
# [5] = LPS stimulated CD14+ cells with GDF15 + agent
molecule,measurement,setting,value
"CC(C)C[C@@H](C=O)NC(=O)[C@H](CC(C)C)NC(=O)[C@H](CC(C)C)NC(=O)OCc1ccccc1 [MG132, reference compound] (Cbz-Leu-Leu-Leu-aldehyde)",levels of QRFPR,QRFPR,levels of QRFPR were increased
"Fc mouse IgG1-GGGGSGGGGSGGGGSYISEHEHFTDFNATSALFWEQHDLVYGDWTS ({Fc mouse IgG1}-GGGGSGGGGSGGGGSYISEHEHFTDFNATSALFWEQHDLVYGDWTS) [AP2, Fc fusion protein with CLPTM1 peptide]",pull down of GDF15 by Fc fusion protein,GDF15 [1],capable of pulling down GDF15
same,secretion of IFNγ,"CD14+ cells; LPS stimulated CD14+ cells + agent, FIG. 30",demonstrated secretion of the pro-inflammatory protein IFNγ
same,secretion of IL12,CD14+ cells; [5],increase in secretion of both cytokines
same,secretion of TNF,CD14+ cells; [5],increase in secretion of both cytokines
GALFWEQHDLVYGDWTS (listed as Homo sapiens) [SEQ ID NO:19],GDF15 precipitated by biotinylated peptide (pull-down),GDF15 [2],more successful than the others in precipitating GDF15
GEIKYDFLYEKEHICCLEEWTS (listed as Homo sapiens) [SEQ ID NO:10],GDF15 precipitated by biotinylated peptide (pull-down),GDF15 [2],more successful than the others in precipitating GDF15
B1,binding result,[3],binds
B2,binding result,[3],binds
B3,binding result,[4],binds
B4,binding result,[4],binds
